A word on the stoichiometry N: it is the number of molecules, sites or subunits per partner or assembly.

Data on one substance can be found in article PMC7962898.

This assay deals with Porcine Epidemic Diarrhea Virus Spike ectodomain, Sf9 expressed (Porcine epidemic diarrhea virus (PEDV) USA/Colorado/2013) (UniProt Q91AV1). The assay is described as follows: cryo-EM structure.

In turn, “Porcine Epidemic Diarrhea Virus Spike ectodomain, Sf9 expressed (from UniProt Q91AV1 26-1322) (domain or fragment)” returned a stoichiometry N of 3.
